The results in this text go back to the RNAGym collection of RNA variant scans (doi:10.7554/elife.80360).

Sequences and labels used below:
B1: CPEB3 Ribozyme (parent)
chain: GGGGGCCACAGCAGAAGCGUUCACGUCGCGGCCCCUGUCAGAUUCUGGUGAAUCUGCGAAUUCUGCUGU

In the data set the parent is B1. In words: self-cleavage, relative activity (ratio to wild type); higher = more cleavage; co-transcriptional.
Consider GGGGGCCAAAGCAGAAGCGUUCACGUCGCGGCCCCUGUCAGAUUGUGGUGAAUCUGCGAAUUCUGCUGU, for which the self-cleavage came out at 1.03.
As for GGGGGCCAAAGCAGAACCGUUCACGUCGCGGCCCCUGUCAGAUUCUGGUGAAUCUGCGAAUUCUGCUGU, the self-cleavage amounted to 0.204.
With GGGGGCCAAAGCAGACGCGUUCACGUCGCGGCCCCUGUCAGAUUCUGGUGAAUCUGCGAAUUCUGCUGU, the self-cleavage turned out to be 0.56.
For GGGGGCCAAAGCAGAGGCGUUCACGUCGCGGCCCCUGUCAGAUUCUGGUGAAUCUGCGAAUUCUGCUGU the value was 0.992; for GGGGGCCUCAGCAGAAGCGUUCACGUCGCGGCCCCUGUCAGAUUCUGGCGAAUCUGCGAAUUCUGCUGU, 1.02.
Consider GGGGGCCUCAGCAGAAGCGUUCACGUCGCGGCCCCUGUCAGAUUCUGGAGAAUCUGCGAAUUCUGCUGU, for which the self-cleavage came out at 0.98.
Consider GGGGGCCUCAGCAGAAGCGUUCACGUCGCGGCCCCUGUCAGAUUCUGGUUAAUCUGCGAAUUCUGCUGU, for which the self-cleavage was found to be 1.01.
Take GGGGGCCAAAGCAGAAGCGUUCACGUCGCGCCCCCUGUCAGAUUCUGGUGAAUCUGCGAAUUCUGCUGU: the self-cleavage came to 0.291.
On to GGGGGCCAAAGCAGAAGCGUUCACGUCGCGUCCCCUGUCAGAUUCUGGUGAAUCUGCGAAUUCUGCUGU, for which the self-cleavage worked out at 0.961.
Regarding GGGGGCCAAAGCAGAAGCGUUCACGUCGCGACCCCUGUCAGAUUCUGGUGAAUCUGCGAAUUCUGCUGU, the self-cleavage was 1.
As for GGGGGCCUCAGCAGAAGCGUACACGUCGCGGCCCCUGUCAGAUUCUGGUGAAUCUGCGAAUUCUGCUGU, the self-cleavage is 0.994.
The same measure for GGGGGCCUCAGCAGAAGCGUUCACGUCGCGGCCCCUGUCAGAUUCUGGUGAAUCUGCGAAUGCUGCUGU: 0.945; for GGGGGCCUCAGCAGAAGCGUUCACGUCGCGGCCCCUGUCAGAUUCUGGUGAAUCUGCGAAUACUGCUGU: 0.97; for GGGGGCCUCAGCAGAAGCGUUCACGUCGCGGCCCCUGUCAGAUUCUGGUGAAGCUGCGAAUUCUGCUGU: 0.891.
For the variant GGGGGCCUCAGCAGAAGCGUUCACGUCGCGGCCCCUGUCAGAUUCUGGUGAAACUGCGAAUUCUGCUGU, the self-cleavage turned out to be 0.913.
For GGGGGCCUCAGCAGAAGCGUUCACGUCGCGGCCCCUGUCAGAUUCUGUUGAAUCUGCGAAUUCUGCUGU, the self-cleavage worked out at 1.03.
Turning to GGGGGCCAAAGCAGAAGCGUUCACGUCGCGGCCCCUGUUAGAUUCUGGUGAAUCUGCGAAUUCUGCUGU, the self-cleavage was found to be 0.973.
For GGGGGCCUCAGCAGAAGCGUUCACGUCGCGGCCCCUGUCAGAUUCUGGUGAAUCUGCGAACUCUGCUGU the value was 0.808; for GGGGGCCAAAGAAGAAGCGUUCACGUCGCGGCCCCUGUCAGAUUCUGGUGAAUCUGCGAAUUCUGCUGU, 0.806; for GGGGGCCAAAGCAGAAGCGUUCACGUCGCGGCCCCUGUCGGAUUCUGGUGAAUCUGCGAAUUCUGCUGU, 1.
The same measure for GGGGGCCUCAGCAGAAGCGUUCACGUCGCGGCCCCUGUCAGAUUCUGGUGAAUCUGCGAAUUCUACUGU: 0.901; for GGGGGCCAAAGCAGAAGCGUUCACGUCACGGCCCCUGUCAGAUUCUGGUGAAUCUGCGAAUUCUGCUGU: 0.265; for GGGGGCCUCAGCAGAAGCGUUCACGUCUCGGCCCCUGUCAGAUUCUGGUGAAUCUGCGAAUUCUGCUGU: 0.0893.
For GGGGGCCUCAGCAGAAGCGUUCACGUCACGGCCCCUGUCAGAUUCUGGUGAAUCUGCGAAUUCUGCUGU, the self-cleavage was found to be 0.141.
For GGGGGCCAAAGCAGAAGGGUUCACGUCGCGGCCCCUGUCAGAUUCUGGUGAAUCUGCGAAUUCUGCUGU the value was 0.26; for GGGGGCCAAAGCAGAAGCGUUCACGUCGCGGCCGCUGUCAGAUUCUGGUGAAUCUGCGAAUUCUGCUGU, 0.995; for GGGGGCCAAAGCAGAAGCGUUCACGUCGCGGCCCCUGUCAGAUUCUGGUGAGUCUGCGAAUUCUGCUGU, 1.02.
The same measure for GGGGGCCAAAGCAGAAGCGUUCACGUCGCGGCCCCUGUCAGAUUCUGGUGAUUCUGCGAAUUCUGCUGU: 1.03; for GGGGGCCAAAGCAGAAGCGUUCACGUCGCGGCCCCUGUCAGAUUCUGGUGACUCUGCGAAUUCUGCUGU: 1.01.
As to GGGGGCCAAAGCAGAAGCGUUCACGUCGCGGACCCUGUCAGAUUCUGGUGAAUCUGCGAAUUCUGCUGU, the self-cleavage stood at 1.
For the variant GGGGGCCAAAGCAGAAGCGUUCACGUCGCGGGCCCUGUCAGAUUCUGGUGAAUCUGCGAAUUCUGCUGU, the self-cleavage is 0.843.
Take GGGGGCCAAAGCAGAAGCGUUCACGUCGCGGCCCCUGUCAGGUUCUGGUGAAUCUGCGAAUUCUGCUGU: the self-cleavage came to 0.997.
As to GGGGGCCAAAGCAGAAGCGUUCACGUCGCGGCCCCUGUCAGUUUCUGGUGAAUCUGCGAAUUCUGCUGU, the self-cleavage is 0.997.
GGGGGCCAAAGCAGAAGCGUUCACGUCGCGGCCCCUGUCAGAUUCUGGUGAAUCUGCGAAUUAUGCUGU: the self-cleavage was 0.953.
For GGGGGCCAAAGCAGAAGCGUUCACGUCGCGGCCCCUGUCAGAUUCUGGUGAAUCUGCGAAUUGUGCUGU, the self-cleavage turned out to be 0.806.
For GGGGGCCUCAGCAGAAGCUUUCACGUCGCGGCCCCUGUCAGAUUCUGGUGAAUCUGCGAAUUCUGCUGU the value was 0.483; for GGGGGCCUCAGCAGAAGCCUUCACGUCGCGGCCCCUGUCAGAUUCUGGUGAAUCUGCGAAUUCUGCUGU, 0.146; for GGGGGCCUCAGCAGAAGCGUUCACGUCGCGGCCCCUGUCAGAUUCUGGUGAAUCUGCGAAUUCUGCCGU, 1.
With GGGGGCCUCAGCAGAAGCGUUCACGUCGCGGCCCCUGUCAGAUUCUGGUGAAUCUGCGAAUUCUGCAGU, the self-cleavage turned out to be 1.03.
